Measured values as given in patent US20100291682, “SYSTEM FOR TRANSPOSING HYPERACTIVE RECOMBINANT DERIVATIVES OF MOS-1 TRANSPOSON” (published 2010).

T1: MBP-Mos-1 transposase (MBP-Tnp) (Drosophila mauritiana, UniProt Q7JQ07 SEQ:1-345)
T1 sequence: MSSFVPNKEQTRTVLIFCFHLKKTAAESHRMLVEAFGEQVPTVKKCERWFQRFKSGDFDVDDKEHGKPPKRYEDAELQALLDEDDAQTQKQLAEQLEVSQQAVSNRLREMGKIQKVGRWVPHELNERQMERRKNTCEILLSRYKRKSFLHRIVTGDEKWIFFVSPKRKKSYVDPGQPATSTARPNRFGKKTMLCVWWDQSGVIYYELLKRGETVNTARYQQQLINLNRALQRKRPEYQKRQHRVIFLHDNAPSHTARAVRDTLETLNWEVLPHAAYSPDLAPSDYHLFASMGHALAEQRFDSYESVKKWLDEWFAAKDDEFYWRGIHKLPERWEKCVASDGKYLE

T2: Mos-1 transposase FQET (Drosophila mauritiana, UniProt Q7JQ07 SEQ:1-345, F53Y,Q91R,E137K,T216A)
T2 sequence: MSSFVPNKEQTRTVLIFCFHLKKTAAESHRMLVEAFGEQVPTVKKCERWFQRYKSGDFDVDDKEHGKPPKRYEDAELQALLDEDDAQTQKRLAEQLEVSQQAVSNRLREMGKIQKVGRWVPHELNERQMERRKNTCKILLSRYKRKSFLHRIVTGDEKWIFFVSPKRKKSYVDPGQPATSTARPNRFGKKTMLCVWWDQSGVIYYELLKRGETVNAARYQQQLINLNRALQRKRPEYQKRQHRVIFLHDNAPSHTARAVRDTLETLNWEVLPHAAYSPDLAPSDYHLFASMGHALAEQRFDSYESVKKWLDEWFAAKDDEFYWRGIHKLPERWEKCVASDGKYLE

T3: Mos-1 transposase FQ (Drosophila mauritiana, UniProt Q7JQ07 SEQ:1-345, F53Y,Q91R)
T3 sequence: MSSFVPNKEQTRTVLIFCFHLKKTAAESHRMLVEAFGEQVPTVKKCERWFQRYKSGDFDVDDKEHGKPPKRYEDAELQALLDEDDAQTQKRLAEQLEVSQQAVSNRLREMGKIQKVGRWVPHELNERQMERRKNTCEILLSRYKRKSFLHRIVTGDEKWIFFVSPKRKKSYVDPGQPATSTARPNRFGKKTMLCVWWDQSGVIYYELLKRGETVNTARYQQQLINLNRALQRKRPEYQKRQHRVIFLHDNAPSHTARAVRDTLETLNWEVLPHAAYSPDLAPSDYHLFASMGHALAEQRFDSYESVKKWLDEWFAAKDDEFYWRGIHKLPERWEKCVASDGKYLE

T4: Mos-1 transposase FT (Drosophila mauritiana, UniProt Q7JQ07 SEQ:1-345, F53Y,T216A)
T4 sequence: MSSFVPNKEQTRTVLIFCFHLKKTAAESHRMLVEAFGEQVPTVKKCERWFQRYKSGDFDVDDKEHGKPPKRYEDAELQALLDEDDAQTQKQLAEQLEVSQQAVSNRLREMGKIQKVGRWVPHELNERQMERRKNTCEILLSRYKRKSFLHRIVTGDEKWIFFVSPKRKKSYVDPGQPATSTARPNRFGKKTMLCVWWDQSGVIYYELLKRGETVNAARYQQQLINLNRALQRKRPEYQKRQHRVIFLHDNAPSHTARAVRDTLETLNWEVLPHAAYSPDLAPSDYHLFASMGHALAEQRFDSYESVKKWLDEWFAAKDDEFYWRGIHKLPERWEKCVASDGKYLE


What was measured:
[1] = biological target: T1, MBP-Mos-1 transposase (MBP-Tnp); assay: EMSA; 5 mM MgCl2, 4 C; conditions: tags: N-terminal MBP (pMalC2x); chain copies: 2
Description: The sequences inducing a delay in migration after incubation with Tnp (positive ITRs) were subjected to a further gel retardation with a purified DNA fragment. The ITR/protein complexes were formed in a final volume of 20 μl containing: 40 μg of MBP-Tnp protein, 1 nM of ITR probe, 1 μg of salmon sperm DNA, 2 μl of 50% glycerol, 5 mM of MgCl₂ and 0.5 μM of pRev. The ITRs only were used at a final concentration of 1 nM in a mixture containing 2 μl of 50% glycerol and 17 μl of buffer. The interaction reactions were maintained for 15 minutes at 4° C. before being analysed on polyacrylamide gel.

[2] = biological target: T2, Mos-1 transposase FQET; assay: cell_activity; 3T40 transposition in E. coli T5 vs 3T3/WT; conditions: chain copies: 2
Description: (§1) Escherichia coli JM109 bacteria were co-transformed with the pBC 3T3 plasmid (comprising a transposition reporter 2 ITR 3′ mariner-like element and the chloramphenicol resistance gene) and with the inducible vector encoding for the transposase (pKK-Tnp or pMal-Tnp) comprising the ampicillin resistance gene. The bacteria selection was performed on ampicillin (100 μg/ml) and chloramphenicol in order to verify the presence of the two plasmids.
(§2) The JM109 bacteria containing both the pBC 3T3 plasmid and the pKK-Tnp (or pMalC2X-Tnp) plasmid were placed in culture for 1 hr at 37° C. in 250 μl of LB. This inoculum was then poured into 5 ml of LB supplemented with 1 mM IPTG. The culture was titrated on LB plates (100 μl of a 1/1000 dilution) and on LB-Tet plates (12.5 μg/ml) (250 μl of the non-diluted culture). The culture induced by IPTG was then cultured for 5 hours at 32° C. (optimal temperature of transposase) under stirring (250 rpm). The bacterial suspension was then titrated on LB plates (100 μl of a 1/250,000 dilution) and on LB-tet plates (100 μl of the undiluted bacterial suspension). The plates were placed at 37° C. overnight. The following day, the colonies were counted on LB and LB-Tet plates, and the transposition frequency (equal to the number of tetracycline bacteria over the number of bacterial per 1 ml of undiluted bacterial suspension) was calculated.
(§3) In order to evaluate the transposition efficiency of systems associating a hyperactive transposase and a pseudo-transposon that is also hyperactive, various combinations were tested in the transposition test in bacteria described in part I, paragraph I-B above.

[3] = biological target: T3, Mos-1 transposase FQ; assay: as above; conditions: chain copies: 2
Description: as §1, §2, §3

[4] = biological target: T4, Mos-1 transposase FT; assay: as above; conditions: chain copies: 2
Description: as §1, §2, §3

[5] = biological target: T1, MBP-Mos-1 transposase (MBP-Tnp); assay: competition; competes with labelled ITR3'; conditions: tags: N-terminal MBP (pMalC2x); chain copies: 2
Description: The principle of these tests is illustrated in FIG. 9. […] The greater the shift, the greater the “improvement” of the ITRSelex sequence with respect to ITR3′. In practice, the transposase fixing reaction is carried out in 20 μl containing 10 mM of Tris pH9 buffer, 0.5 mM of DDT, 5 mM MgCl₂, 5% (vol/vol) of glycerol, 1 μg of herring sperm DNA and 100 ng of BSA, in the presence of 15 nM of radiolabelled ITR3′ and non-radiolabelled ITRSelex. The non-radiolabelled ITRSelex concentrations tested were 0 nM, 15 nM, 75 nM, 150 nM, 300 nM, 750 nM, 1500 nM.

Binder | binding result [1] | activity [2] | activity [3] | activity [4] | binding result [5]
ITR46 (dsDNA) DNA 1: TCAGGTGTACAAGTATGAGATGTCGTTT DNA 2: AAACGACATCTCATACTTGTACACCTGA | binds | – | – | – | –
ITR40 (dsDNA) DNA 1: TCAGGTGTACAAGTATGTAATGTCGTTA DNA 2: TAACGACATTACATACTTGTACACCTGA | – | 3.7 fold | 2.5 fold | 2 fold | binds
